{"source": "patent US7981652B2", "about": "“Modified cytochrome P450 monooxygenases” (BASF Aktiengesellschaft, priority 1999, dated 2011)", "molecules": {"B1": {"name": "WT: wild-type cytochrome P450 monooxygenase BM-3 from Bacillus megaterium, SEQ ID NO:2 (protein, listed as Bacillus megaterium)", "chain": "TIKEMPQPKTFGELKNLPLLNTDKPVQALMKIADELGEIFKFEAPGRVTRYLSSQRLIKEACDESRFDKNLSQALKFVRDFAGDGLFTSWTHEKNWKKAHNILLPSFSQQAMKGYHAMMVDIAVQLVQKWERLNADEHIEVPEDMTRLTLDTIGLCGFNYRFNSFYRDQPHPFITSMVRALDEAMNKLQRANPDDPAYDENKRQFQEDIKVMNDLVDKIIADRKASGEQSDDLLTHMLNGKDPETGEPLDDENIRYQIITFLIAGHETTSGLLSFALYFLVKNPHVLQKAAEEAARVLVDPVPSYKQVKQLKYVGMVLNEALRLWPTAPAFSLYAKEDTVLGGEYPLEKGDELMVLIPQLHRDKTIWGDDVEEFRPERFENPSAIPQHAFKPFGNGQRACIGQQFALHEATLVLGMMLKHFDFEDHTNYELDIKETLTLKPEGFVVKAKSKKIPLGGIPSPSTEQSAKKVRKKAENAHNTPLLVLYGSNMGTAEGTARDLADIAMSKGFAPQVATLDSHAGNLPREGAVLIVTASYNGHPPDNAKQFVDWLDQASADEVKGVRYSVFGCGDKNWATTYQKVPAFIDETLAAKGAENIADRGEADASDDFEGTYEEWREHMWSDVAAYFNLDIENSEDNKSTLSLQFVDSAADMPLAKMHGAFSTNVVASKELQQPGSARSTRHLEIELPKEASYQEGDHLGVIPRNYEGIVNRVTARFGLDASQQIRLEAEEEKLAHLPLAKTVSVEELLQYVELQDPVTRTQLRAMAAKTVCPPHKVELEALLEKQAYKEQVLAKRLTMLELLEKYPACEMKFSEFIALLPSIRPRYYSISSSPRVDEKQASITVSVVSGEAWSGYGEYKGIASNYLAELQEGDTITCFISTPQSEFTLPKDPETPLIMVGPGTGVAPFRGFVQARKQLKEQGQSLGEAHLYFGCRSPHEDYLYQEELENAQSEGIITLHTAFSRMPNQPKTYVQHVMEQDGKKLIELLDQGAHFYICGDGSQMAPAVEATLMKSYADVHQVSEADARLWLQQLEEKGRYAKDVWAG"}}, "key": {"[1]": {"assay": "Hydroxylation of lauric acid with P450 BM-3 mutants, GC analysis of products", "format": "biochemical", "method": "The following batch was chosen to hydroxylate the fatty acids in the presence of P450 BM-3 or its mutants:\nPrior to the reaction, the enzyme lyophilisate was dissolved in 1 ml of reaction buffer and first incubated for 30 minutes at 36° C. Like the addition of 2% v/v acetone, the incubation leads to an increase in activity of 60 and 75%, respectively.\nAfter 5 minutes' incubation, 500 μl of the previously prepared NADPH solution (12.5 mg/ml) were added. The course of the reaction is monitored by absorption measurements at 340 nm, and the consumption of NADPH can be observed. Theoretically 4 ml of NADPH solution would be required for a stoichiometric conversion, however, an unduly high NADPH concentration in the reaction solution results in inactivation of the enzyme, which is why the cofactor is added in 500 μl steps.\nAfter the reaction had ended, the solution was acidified with 5M hydrochloric acid to a pH of 2. The fatty acids or hydroxylated fatty acids precipitate during this and result in a noticeable cloudiness of the solution. Thereafter, the mixture was extracted twice with in each case 10 ml of dichloromethane and dried over sodium sulfate. After filtration through a folded filter, the dichloromethane was removed on a rotary evaporator or by evaporation with nitrogen. The white solid which remained was taken up in 2 ml of dichloromethane and used in the GC analysis.\nA Fisons gas chromatograph (Fisons Instruments Mega Series, Mainz, Germany) equipped with FID was used for the analysis (Optima 5-column, internal diameter 25 m×0.25 mm, Macherey & Nagel, Düren, Germany).\nFor analysis, starting materials and products were silylated with MSHFBA. During this, all hydroxyl and acid groups are converted into the corresponding trimethylsilyl ethers and esters, respectively. Care must be taken that the sample is anhydrous since otherwise side reactions with the silylating agent result. 15 μl of MSHFBA were pipetted into 10 μl of the hydroxy-fatty-acid-containing dichloromethane solution and the mixture was incubated for 15 minutes at room temperature. After 25 μl of dichloromethane had been added, the GC analysis was carried out.\nTo this end, 1 μl of the silylated samples were injected into the gas chromatograph. Injector and detector temperature were 350° C. The following temperature programmes were used:\nTo determine the reaction yields, gas chromatograms of standards were recorded. […] These ion fluxes are not proportional to the quantitative ratio of starting material and product. […] The empirical formulae of the standards and of the products are identical, and the structure only differs with regard to the position of the hydroxyl group, which is why approximately identical detectable ion fluxes can be assumed for identical quantities."}, "[2]": {"assay": "pNCA enzyme activity assay, substrate 8-pNCA", "format": "biochemical", "method": "(§1) For the pNCA activity assay use was made of 8 μl of a 10 mM pNCA solution in DMSO in a disposable cell in an end volume of 1 ml. After 850 μl of Tris/HCl buffer (0.1 M, pH 8.2) and 0.1 to 0.4 nmol P450 had been added to the pNCA/DMSO solution in question, the samples were preincubated for 5 minutes before the reaction was started by adding 50 μl of an aqueous solution of […]. To determine Kcat and Km, a concentration series was established for the various pNCA substrates (regarding details of the detection method, see (12)).\n(§2) A 96-well plate (Greiner, Frickenhausen, Germany) was used for carrying out the pNCA test in a microtiter plate. In a total reaction volume of 250 μl in Tris/HCl buffer (0.1 M, pH 8.2), the reaction batch contained either 60 nmol 8-pNCA, 15 nmol 10-pNCA, 15 nmol 12-pNCA or 15 nmol 15-pNCA, in each case dissolved in 2.5 μl of DMSO. After the samples had been preincubated for 5 minutes with 40 μl of P450 BM-3 samples, the reaction was started by injecting, into each well, 30 μl of a 1 mM NADPH solution. Immediately after the NADPH solution had been added, the plates were measured in a plate reader at 405 nm."}, "[3]": {"conditions": "from reference (1); cited from earlier work"}, "[4]": {"assay": "pNCA enzyme activity assay, substrate 10-pNCA", "format": "biochemical", "method": "as §1, §2"}, "[5]": {"conditions": "from reference (12); cited from earlier work"}, "[6]": {"assay": "pNCA enzyme activity assay, substrate 15-pNCA", "format": "biochemical", "method": "as §1, §2"}, "[7]": {"assay": "pNCA enzyme activity assay, substrate 12-pNCA", "format": "biochemical", "method": "as §1, §2"}}}
{"molecule": "B1", "values": [{"measurement": "positions in which the enzyme is active", "setting": "[1]; lauric acid", "result": "only active in the positions w-1, w-2 and w-3"}, {"measurement": "Hydroxylation position ω-1, share of products", "setting": "[1]; lauric acid (C12)", "result": 38, "unit": "%"}, {"measurement": "Hydroxylation position ω-2, share of products", "setting": "[1]; lauric acid (C12)", "result": 28, "unit": "%"}, {"measurement": "Hydroxylation position ω-3, share of products", "setting": "[1]; lauric acid (C12)", "result": 34, "unit": "%"}, {"measurement": "Specific activity", "setting": "[2]", "result": 15, "unit": "nmol/min/nmol P450"}, {"measurement": "catalytic activity for fatty acids with a chain length of less than 12 carbon atoms", "setting": "[3]", "result": "no catalytic activity"}, {"measurement": "Specific activity", "setting": "[4]", "result": 339, "unit": "nmol/min/nmol P450"}, {"measurement": "conversion of 12-pNCA (ω-hydroxylation)", "setting": "[5]", "result": 33, "unit": "%"}, {"measurement": "Specific activity", "setting": "[6]", "result": 405, "unit": "nmol/min/nmol P450"}, {"measurement": "Specific activity", "setting": "[7]", "result": 141, "unit": "nmol/min/nmol P450"}]}
